Test results taken from doi:10.1101/2024.10.07.617049 (bioRxiv, 2024).

What was measured:
[1] = target: T1, selinexor-conjugated XPO1 (human, UniProt O14980 1-1071, Cys528 covalently conjugated to selinexor (KPT-330)); assay: cryo-EM structure
KPT-185-conjugated XPO1 = KPT-185-conjugated XPO1 (human, UniProt O14980 1-1071, Cys528 covalently conjugated to KPT-185); assay: cryo-EM structure
KPT-127-conjugated XPO1 = KPT-127-conjugated XPO1 (human, UniProt O14980 1-1071, Cys528 covalently conjugated to KPT-127); assay: cryo-EM structure
[2] = target: KPT-UTSW1-conjugated XPO1 (human, UniProt O14980 1-1071); assay: cryo-EM structure
[3] = target: exportin 1 (XPO1), unliganded (human, UniProt O14980 1-1071); assay: ITC
[4] = target: T1, selinexor-conjugated XPO1; assay: ITC

T1 sequence (O14980 whole entry): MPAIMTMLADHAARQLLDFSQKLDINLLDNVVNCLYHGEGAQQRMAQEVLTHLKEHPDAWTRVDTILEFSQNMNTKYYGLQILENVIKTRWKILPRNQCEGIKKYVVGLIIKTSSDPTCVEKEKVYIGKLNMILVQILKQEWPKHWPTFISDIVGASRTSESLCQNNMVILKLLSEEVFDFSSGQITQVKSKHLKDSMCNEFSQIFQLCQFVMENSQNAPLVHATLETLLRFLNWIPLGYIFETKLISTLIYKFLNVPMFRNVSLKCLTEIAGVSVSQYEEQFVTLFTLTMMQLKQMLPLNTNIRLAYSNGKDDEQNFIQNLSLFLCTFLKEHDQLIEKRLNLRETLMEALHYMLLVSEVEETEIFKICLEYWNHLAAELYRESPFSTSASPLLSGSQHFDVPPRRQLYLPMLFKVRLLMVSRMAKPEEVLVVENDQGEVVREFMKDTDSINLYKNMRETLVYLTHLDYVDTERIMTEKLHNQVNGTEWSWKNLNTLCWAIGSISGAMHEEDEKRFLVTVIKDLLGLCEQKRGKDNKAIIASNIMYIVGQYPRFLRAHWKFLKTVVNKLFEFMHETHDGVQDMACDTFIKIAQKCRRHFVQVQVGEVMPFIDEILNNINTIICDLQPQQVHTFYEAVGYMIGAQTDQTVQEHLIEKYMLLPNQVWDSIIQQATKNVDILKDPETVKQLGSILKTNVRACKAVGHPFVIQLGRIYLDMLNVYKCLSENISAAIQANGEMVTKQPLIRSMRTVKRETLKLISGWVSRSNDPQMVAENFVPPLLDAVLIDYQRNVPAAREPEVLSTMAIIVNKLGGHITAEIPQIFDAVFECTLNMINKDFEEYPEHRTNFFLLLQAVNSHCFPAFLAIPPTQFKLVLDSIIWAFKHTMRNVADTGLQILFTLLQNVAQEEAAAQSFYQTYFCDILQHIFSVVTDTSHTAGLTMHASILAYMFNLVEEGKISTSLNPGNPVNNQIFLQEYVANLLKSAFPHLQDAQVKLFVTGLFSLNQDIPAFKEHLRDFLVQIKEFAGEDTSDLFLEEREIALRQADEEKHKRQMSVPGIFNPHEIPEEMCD
Sequence of KPT-UTSW1-conjugated XPO1 (O14980 whole entry): as above
Sequence of KPT-127-conjugated XPO1 (O14980 whole entry): as above
Sequence of KPT-185-conjugated XPO1 (O14980 whole entry): as above
Sequence of exportin 1 (XPO1), unliganded (O14980 whole entry): as above

binding result [1]	Kd [4] [nM]	Binder	other results
binds	–	ASB8^ΔN16 (domain or fragment) SLSERLIRTIAAIRSFPHDNVEDLIRGGADVNCTHGTLKPLHCACMVSDADCVELLLEKGAEVNALDGYNRTALHYAAEKDEACVEVLLEYGANPNALDGNRDTPLHWAAFKNNAECVRALLESGASVNALDYNNDTPLSWAAMKGNLESVSILLDYGAEVRVINLIGQTPISRLVALLVRGLGTEKEDSCFELLHRAVGHFELRKNGTMPREVARDPQLCEKLTVLCSAPGTLKTLARYAVRRSLGLQYLPDAVKGLPLPASLKEYLLLLE	binding result (KPT-185-conjugated XPO1): binds; binding result (KPT-127-conjugated XPO1): binds; binding result [2]: binds
–	29	ASB8^ΔN16•ELOB/C (complex) chain 1: SLSERLIRTIAAIRSFPHDNVEDLIRGGADVNCTHGTLKPLHCACMVSDADCVELLLEKGAEVNALDGYNRTALHYAAEKDEACVEVLLEYGANPNALDGNRDTPLHWAAFKNNAECVRALLESGASVNALDYNNDTPLSWAAMKGNLESVSILLDYGAEVRVINLIGQTPISRLVALLVRGLGTEKEDSCFELLHRAVGHFELRKNGTMPREVARDPQLCEKLTVLCSAPGTLKTLARYAVRRSLGLQYLPDAVKGLPLPASLKEYLLLLE chain 2: […] chain 3: […]	Kd [3]: 11000 nM
–	58	ASB8^ΔN16/R197A•ELOB/C (complex) chain 1: SLSERLIRTIAAIRSFPHDNVEDLIRGGADVNCTHGTLKPLHCACMVSDADCVELLLEKGAEVNALDGYNRTALHYAAEKDEACVEVLLEYGANPNALDGNRDTPLHWAAFKNNAECVRALLESGASVNALDYNNDTPLSWAAMKGNLESVSILLDYGAEVRVINLIGQTPISRLVALLVAGLGTEKEDSCFELLHRAVGHFELRKNGTMPREVARDPQLCEKLTVLCSAPGTLKTLARYAVRRSLGLQYLPDAVKGLPLPASLKEYLLLLE chain 2: […] chain 3: […]	–
binds	–	ASB8^ΔN16/R197A (domain or fragment) SLSERLIRTIAAIRSFPHDNVEDLIRGGADVNCTHGTLKPLHCACMVSDADCVELLLEKGAEVNALDGYNRTALHYAAEKDEACVEVLLEYGANPNALDGNRDTPLHWAAFKNNAECVRALLESGASVNALDYNNDTPLSWAAMKGNLESVSILLDYGAEVRVINLIGQTPISRLVALLVAGLGTEKEDSCFELLHRAVGHFELRKNGTMPREVARDPQLCEKLTVLCSAPGTLKTLARYAVRRSLGLQYLPDAVKGLPLPASLKEYLLLLE	–
